Data on 3 molecules can be found in paper PMC7069974, “Single molecule analysis reveals monomeric XPA bends DNA and undergoes episodic linear diffusion during damage search”.

Common to all, as to experiment: EMSA; EMSA: 8 nM DNA, 20 mM HEPES pH 7.5, 150 mM NaCl, 5 mM DTT, 0.5 mg/ml BSA, 5% glycerol, 25 min at room temperature; gel 5% native, 0.5x TBE, 4 C. AFM: 100 nM DNA, 1-4 uM XPA (ND538)
Common to all, as to conditions: protein: recombinant, tags: N-terminal His, label: 5'-6FAM on bottom strand, blunt
(In general: A gel shift assay detects complexes by their altered migration in electrophoresis.)

The target of one data set is His-truncXPA-StrepII (human, UniProt P23025 98-239).
For data set [1], the target named is T1, His-flXPA-StrepII (human, UniProt P23025 1-273).
For data set [2], the target named is T1, His-flXPA-StrepII. This is another data set of the same source.

Sequence of His-truncXPA-StrepII (P23025 98-239): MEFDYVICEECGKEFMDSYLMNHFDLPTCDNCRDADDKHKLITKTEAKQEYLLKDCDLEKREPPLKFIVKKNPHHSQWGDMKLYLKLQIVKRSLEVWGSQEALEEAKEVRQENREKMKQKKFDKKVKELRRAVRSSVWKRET
T1 sequence (P23025 whole entry): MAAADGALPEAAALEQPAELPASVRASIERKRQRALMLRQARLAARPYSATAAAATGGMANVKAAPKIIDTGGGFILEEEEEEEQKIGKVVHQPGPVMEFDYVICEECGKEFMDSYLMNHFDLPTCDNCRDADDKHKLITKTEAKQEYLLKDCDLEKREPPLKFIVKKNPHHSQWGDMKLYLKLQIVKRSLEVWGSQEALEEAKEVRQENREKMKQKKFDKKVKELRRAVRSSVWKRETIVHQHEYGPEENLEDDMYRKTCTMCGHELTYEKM

B1: ND37 (dsDNA)
DNA 1: CCGAGTCATTCCTGCAGCGAGTCCATGGGAGTCAAAT
DNA 2: ATTTGACTCCCATGGACTCGCTGCAGGAATGACTCGG
modifications: 5'-phosphate top strand
As for B1, the Kd (usually the equilibrium constant for the complex coming apart) with His-truncXPA-StrepII came out at 269 ± 22 nM; with His-flXPA-StrepII [1] it was 253 ± 14 nM.

B2: CPD37 (dsDNA)
DNA 1: CCGAGTCATTCCTGCAGCGATTCCATGGGAGTCAAAT
DNA 2: ATTTGACTCCCATGGAATCGCTGCAGGAATGACTCGG
modifications: CPD T<>T at T21-T22 of top strand; 5'-phosphate top strand
Consider B2, for which the binding signal in the data set with His-flXPA-StrepII [2] was ~44 fold specificity for CPD over non-damaged DNA (Kd ratio x 37 sites). In addition, the Kd with His-truncXPA-StrepII was found to be 269 ± 24 nM.

B3: AAF37 (dsDNA)
DNA 1: CCGAGTCATTCCTGCAGCGAGTCCATGGGAGTCAAAT
DNA 2: ATTTGACTCCCATGGACTCGCTGCAGGAATGACTCGG
modifications: dG-C8-AAF at G14 of top strand; 5'-phosphate top strand
For the molecule B3, the values for the Kd with His-truncXPA-StrepII and with His-flXPA-StrepII [1] were 189 ± 9 nM and 109 ± 5 nM, respectively.
